Measured values published in the supplement of paper PMC9942255.

Test system: Bacillus subtilis DB104 (SP-AmyQ fusion secretion)
Assay: AmyQ secretion efficiency, weighted average sort bin (1 = best secretion, 10 = worst) (bin number (weighted average, 1-10)); higher = lower secretion efficiency
Procedure, shortened: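 Secretion score gives the read-frequency-weighted average bin number, normalised to beads per bin, with low-abundance sequences left out. A B. subtilis DB104 library expressing mature AmyQ fused to designed signal peptides, integrated at amyE, was encapsulated with fluorescein-starch at about 0.3 cells per ~65 nL alginate bead. Beads were grown about 13 h at room temperature, stained with nile red, and the occupied ones were sorted by large-particle flow cytometry into 10 equally populated bins by green/red fluorescence ratio before the amplicons from each bin were Illumina-sequenced.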

| Sequence | AmyQ secretion efficiency |
| --- | --- |
| MKKSQYFIVFICFFVLFSVHPIASAAADS | 4.61 |
| MKKWIYVVLVLSIAGIGGFSYHAASS | 7.41 |
| MKKKQVMLALTAAAGLGLTALHSAPAQKAAPL | 5.43 |
| MKKRITYSLLALLAVVAFAFTDSSKAKKAEA | 4.79 |
| MKKGIIRFLLVSFVLFFALDEDITGVQAAPA | 3.78 |
| MKKWLIIAVSLAIAIVLFMYTKGEAKVAGM | 5.3 |
| MRPVFPLILSAVLFLFGARQTEASASKR | 5.49 |
| MGLGKKLSVAVAASFMSLSISLPGTQAAEG | 1.77 |
| MKKKQVSHARSTKTRRQFVIAVFHTIHASELTP | 8.17 |
| MTKLKMLSMLTVMIASLFIFSSQALMVQY | 5.71 |
| MKRKIVRMTLPLLIVCLAFSSFSASARAASE | 2.21 |
| MRGKSAVLLSLIMLIAGFLISFTFQM | 6.75 |
| MKLAKRVSALTPSTTLAITWKAKEL | 5.85 |
| MKKGYSTTSTGVLVTTVFLVKQQESVAQAKQL | 7.95 |
| MHLIRAAGAVCLAVVLIAGCRFNEDQHQPEGENT | 5.35 |
| MKKSQYFIVFICFFVLFSRHKKAAAAADS | 6.2 |
| MKMKSGMEQAVSVLLLLSRLPVQASLTRK | 7.01 |
| MKRMIVRMTLPLLIVCLAFSTSFSASARAASE | 2.38 |
| MKLKSKLLLSCLALSTVFVATTIANCPTH | 7.55 |
| MKKWMAGLFLAAAVLLCLMVPQQQQGASS | 6.69 |
| MKFVKRRIRRKRTILMLSVTSLFALQPSAKAAEH | 3.06 |
| MKLRKVLTGSVLSLGLLVSASPAFARKR | 5.66 |
| MKRLFMKASLVLFAVVFVFAVKGAPAKADEE | 2.81 |
| MKRLFMKASLVLFAVVFVFAVKGAIAKAETH | 2.52 |
| MKQKRKIIGWILLLCIIPLFAFTVIASGKEV | 6.81 |
| MRSYIKVLTMCFLGLILFVPTALAARK | 5.25 |

| Sequence | AmyQ secretion efficiency |
| --- | --- |
| MKKWLKRKKSLAIAIVLFMYTKGEAKAAGM | 7.31 |
| MRKTIFAFLTGLMMFGTITAQSASPD | 5.11 |
| MFNRLFRVCFLAALIMAFTLPNSVYKQKP | 6.24 |
| MKLSVKIAGVLTVAATAKMYATAKGN | 7.17 |
| MKKQIITATTAVVLGSTLFADDEASAQSI | 2.17 |
| MKSCKQLIVCSLAAILLLIPSVWFAADS | 4.55 |
| MRHKIITFILAVVVIIIIGNMIGGGGGSEATSE | 3.29 |
| MKKRFFGPIILAFILFRRRAIAIPS | 7.49 |
| MAIIIAIIAAVIVIAALITFEEDERNASPG | 5.02 |
| MLCVMMLLFSAIASFPVSAQVKDQ | 5.88 |
| MKKAFILSAAAAVGLFTFGGVQQASMKEL | 5.04 |
| MKRLLVSLRVWMVFLMNWVTPDRKTAAPAVY | 6.03 |
| MPRKKKQKYRCLAVTLVFGSMSFPTLTNSGGFKE | 6.94 |
| MKKVLMAFIICLSLILSVLAAPPSGAKAASK | 1.85 |
| MRGKSAVLLSLIMLIAGFLISFQFQM | 7.36 |
| MMRIRIPMTLALGAALTIAPLSFASAEEN | 2.92 |
| MKKRLIGFLVLVPALIMSGITLEEANKK | 7.58 |
| MKKAAAVLLSLGLVFGFSYGAGHVQEAKTK | 7.17 |
| MRKKCSVCLWILVLLLSCDSGKSAYAATS | 3.15 |
| MPYLKRVLLLLVTGLFMSLFAVTATQSAQTG | 3.84 |
| MKKAAAVLLSLGLVFKFSYGAGHVAEAKTK | 3.2 |
| MGGMSCSILVVSVTLFFSFLTIGPLAHAQNS | 2.24 |
| MRNLTKTSLLLAGLCTAAIMVFVIHASAEES | 5.76 |
| MKSKWMSGLLLVAVGFSFTQVMVHAGDE | 5.94 |
| MKKIWIGMLAAAVLLLRKPKVSLADAA | 7.91 |
| MKKAAAVLLSLGLVFGFSYGAGHVMEAKTK | 5.11 |

| Sequence | AmyQ secretion efficiency |
| --- | --- |
| MGLGKKLSVAVAASFMSLSISLPGVQRAEG | 2.64 |
| MKKLLAAGIIGLLTVTSIASPSFAAEK | 2.48 |
| MKLSVKIAGVLTVAAAAMTAKMYLTAKGN | 7.31 |
| MKRTWNVCLTALLSVLLVAGSVPFHVEAKKP | 2 |
| MKKKQVMLALTAAAGLGLTALHSAPANKAAPL | 5.6 |
| MKKVLMAFIICLSLILSVLAAPPSGSKAESV | 3.67 |
| MRSYIKVLTMCFLGLILFVPTQLADNS | 5.96 |
| MRPVFPLILSAVLFLSCFFGARQTEASASSD | 1.96 |
| MHLIRAAGAVCLAVVLIAGCRKRRRQHQAEGENT | 6.76 |
| MKWMCSICCAAVLLAGRRRRRKAQAEAV | 6.72 |
| MKKRLIGFLVLVPALIEDGITLIEANKK | 5.91 |
| MKLAKRVRKLTPSTTLAITAKAKEL | 8.89 |
| MKKRYMAFIICLSLILSVLAAPPSGAKAESV | 2 |
| MLCVMMLLFSAIASFPVSAQMKDQ | 6.09 |
| MKKKIIRFLLVSFVLFFALSTGITGVQAAPA | 2.57 |
| MKLRKVRRRKKRSLGLLVSASPAFATSP | 8.72 |
| MPYLKRVLLLLVTGLFMSLFAVTATASRQTG | 1.19 |
| MAIIIAIIAAVIVIAALITFNVRNFSPG | 6.5 |
| MIVIILLFISIIVFLSVIQPQPD | 4.48 |
| MSFKRVITCVMAASLTLGSLLPAGYASAKED | 2.84 |
| MKRCKRLIVCSLAAILLLIPSVSFAADS | 3.14 |
| MKKKLAAGLTASAIVGTTLVVTPQEAATI | 5.9 |
| MKNMSCKLVVSVTLFFTIGPLAHAQNS | 2.62 |
| MKRTWNVCLTALLSVLLVAGSVPFHAEAAPD | 2.13 |
| MKKSQYFIVFICFFVLFSVHPIAAAAASS | 2.35 |
| MKKKLAAGLTASAIVGTTLVVTPAEAKRK | 6.02 |

| Sequence | AmyQ secretion efficiency |
| --- | --- |
| MKKRRAIIIAIIAAVIVIAALITFNVRNASPG | 5.35 |
| MKKVLMAFIICLSLILSVLAAPPSGAKIESV | 5.54 |
| MRPVFPLILSAVLFLSCFRASASKR | 6.81 |
| MKKAAAVLLSLGLVFGFSYGAGHVAEGKTK | 2.6 |
| MRMLWRSLALCGLALTLAPCAQIAEP | 6.42 |
| MKKTIMSFVAVAALSTTAFGAHASGKEI | 2.91 |
| MKSKWMSGLLLVAVGFSFIALFATQVMVHAGET | 7.59 |
| MKKKLAAGLTASAIVGTTLVVTPAELATI | 5.54 |
| MSSSVKIAGVLTVAAAAMTAKMYATAKGN | 4.6 |
| MKRIRIPMTLALGAALTIAPLSFASQEEN | 7.06 |
| MFLAKRVSALTPSTTLAITAKAKEL | 7.34 |
| MNTAIIIAIIAAVIVIAALITFNVRNASPG | 8.06 |
| MAIIIAIIAAVIVIAALITFNVMNASPG | 6.23 |
| MLKRTSFVSSLFISSAVLLSILKKKGQAHAQSA | 7 |
| MPIKKKVMMCLAVTLVFGSMSFPTLTNATSGGFKE | 2.8 |
| MKKVLMAFIICLSLILSVLAAPPSGAKAASE | 1.49 |
| MKTKTLFIFSAILTFAPNETFAQTA | 2.34 |
| MRKKTKNRLISSVLFMVVIMILLFSPGAAGASSK | 1.52 |
| MKIRKILLSSALSFGMLISAVPALAAGR | 2.62 |
| MKKLLAAGIIGLLTVSIASPSFAADD | 2.83 |
| MMTKSKLLLSCLALSTVFVATTIANAPTH | 5.2 |
| MRSYIKVLTMCFLGLILFVPALADNS | 6.75 |
| MKSCKQLIVCSLAAILLLIPSVSFSTSTGASSFAADS | 6.07 |
| MKKGIIRFLLVSFVLFFALSTGITGVQAARK | 2.85 |
| MKVLLSALLLLLFAFEPSHSGKKL | 6.88 |
| MRKTIFAFLTGLMMFGTITAMSASPD | 5.39 |

| Sequence | AmyQ secretion efficiency |
| --- | --- |
| MFKKGYSSYRKRTFSLSLVLPLDGHAKAQEV | 7.96 |
| MGLGKKLSVAVAASFMSLSISLPGVQARKR | 6.96 |
| MTMLRKIIGWILLLCIIPLFAFTVITSGKEV | 6.41 |
| MLKKIALTLCPAIVGSLLFFTKPQASAHVS | 3.85 |
| MKKRKRRFLLVSFVLFFALSTGITGVQAAPA | 2.95 |
| MKIRKILLSSALSFGMLISAVPALARKR | 5.61 |
| MKKKLKRKKRRSAIVGTTLVVTPAEAATI | 6.61 |
| MKRLLVSLRVWMVFLMNWVTPDRKTNAAAVY | 6.68 |
| MKWMCSICCAAVLLAGGATQAEAV | 2.86 |
| MKQFAITLSVLCALILLVPTLLVIPFQHNKEAKASV | 5.85 |
| MKRLFMKASLVLFAVVFVFAVKGAPMKAETH | 1.95 |
| MTKLKMLSMLTVMIASLFIFSSQTLAVQY | 2.28 |
| MMSTIMSFVAVAALSTTAFGAHASAKEI | 4.72 |
| MNKPTKLFSTLALAAGMTRRKKRKAGTIHAQQP | 6.79 |
| MTKKAWFLPLVCVLLISGWLAPAASASPQTT | 2.48 |
| MKKLLAAGIIGLLTVSIASPYFAAEK | 6.19 |
| MKKALTLCPAIVGSLLFFTAPASAHVS | 2.41 |
| MKRKLLSSLAISALSLGLLVSGPTTSFAAES | 3.9 |
| MKKRLIAPMLLSAASLAFFAMSGSHQAAAY | 5.04 |
| MKRMIVRMTLPLLIVCLAFSDFSASARAASE | 2.61 |
| MKKKLAAGLTASAIVGTTLVVTPAEAATR | 2.36 |
| MKNMSCKLRKKKTLFFSFLTIGPLAHAQNS | 6.98 |
| MKQGKFSSFLILLLMLTLVVAPKEKAEAASS | 2.33 |
| MKSKGSIMACLILFSFTITGDPNTETISAFSN | 4.93 |
